Test results published in patent US20090048324A1 (FOX CHASE CANCER CENTER, published 2009).
Changes are numbered by the printed parent chain.

Tests used:
[1] = biological target: the molecule itself; test: purification and dialysis against magnesium
[2] = biological target: the molecule itself; test: cell-based or functional assay
[3] = biological target: T1, human PBGS variant F12L (human, UniProt P13716 1-330); test: coexpression, Q-Sepharose chromatography
T1 construct: Hexamer in the crystal structure (PDB 1PV8); tetramer/hexamer mix in sedimentation equilibrium; also called F12L hexamer
T1 chain: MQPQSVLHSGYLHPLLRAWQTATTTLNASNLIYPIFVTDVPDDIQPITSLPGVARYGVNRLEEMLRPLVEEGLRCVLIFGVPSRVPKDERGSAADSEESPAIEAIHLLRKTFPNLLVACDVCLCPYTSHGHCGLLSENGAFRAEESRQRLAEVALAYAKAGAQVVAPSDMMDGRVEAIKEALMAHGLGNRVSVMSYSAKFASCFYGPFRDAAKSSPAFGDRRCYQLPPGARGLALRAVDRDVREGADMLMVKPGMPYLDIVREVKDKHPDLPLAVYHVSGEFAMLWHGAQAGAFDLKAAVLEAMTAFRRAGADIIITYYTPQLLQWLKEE

B1: Pseudomonas aeruginosa porphobilinogen synthase (enzyme)
chain: MSFTPANRAYPYTRLRRNRRDDFSRRLVRENVLTVDDLILPVFVLDGVNQRESIPSMPGVERLSIDQLLIEAEEWVALGIPALALFPVTPVEKKSLDAAEAYNPEGIAQRATRALRERFPELGIITDVALDPFTTHGQDGILDDDGYVLNDVSIDVLVRQALSHAEAGAQVVAPSDMMDGRIGAIREALESAGHTNVRIMAYSAKYASAYYGPFRDAVGSASNLGKGNKATYQMDPANSDEALHEVAADLAEGADMVMVKPGMPYLDIVRRVKDEFRAPTFVYQVSGEYAMHMGAIQNGWLAESVILESLTAFKRAGADGILTYFAKQAAEQLRRGR
notes: Purified as a dimer without magnesium and converted to the octamer by dialysis against magnesium; also called P. aeruginosa PBGS
Does B1 bind [1]?
Result: binds

B2: pea (Pisum sativum) porphobilinogen synthase (enzyme, Pisum sativum (pea), UniProt P30124 69-398, looked up)
chain: SLPIQRRPRRNRRSPALRSAFQETTLSPANFVYPLFIHEGEEDTPIGAMPGCYRLGWRHGLLEEVAKARDVGVNSVVLFPKIPDALKTPTGDEAYNEDGLVPRSIRLLKDKYPDLIIYTDVALDPYSSDGHDGIVREDGVIMNDETVHQLCKQAVAQARAGADVVSPSDMMDGRVGAMRVALDAEGFQHVSIMSYTAKYASSFYGPFREALDSNPRFGDKKTYQMNPANYREALTEMREDESEGADILLVKPGLPYLDIIRLLRDNSPLPIAAYQVSGEYSMIKAGGALKMIDEEKVMMESLLCLRRAGADIILTYFALQAARTLCGEKR
How did the “EC50 (read off the curve), specific activity against pea PBGS subunit concentration” value [2] turn out when B2 was run?
The value was about 30 nM.

B3: wild type human porphobilinogen synthase (PBGS), parent construct N59/C162A (enzyme)
chain: T1 chain with L12F
notes: Homo-oligomer, predominantly an octamer; also called Wt; WT
Does B3 bind [3]?
Result: binds
